Assay results: patent US20230167164A1 (IMMUNOWAKE, published 2023)
Positions count from the first letter of the chain named. Names and notes keep the numbering of the source. Blank lines part the entries; values can stand above or below the binder they belong to.

Columns and labels:
human PD-1 [1] = target: T1, human PD-1 (human, UniProt Q15116 25-167, limits assumed); test: method not named
T1 construct: nivolumab is called an anti-human PD-1 antibody; also called hPD-1

mouse PD-1 [2] = target: T2, mouse PD-1 (mouse, UniProt Q02242 25-167, limits assumed); test: method not named
T2 construct: also called mPD-1
T2 sequence (looked up): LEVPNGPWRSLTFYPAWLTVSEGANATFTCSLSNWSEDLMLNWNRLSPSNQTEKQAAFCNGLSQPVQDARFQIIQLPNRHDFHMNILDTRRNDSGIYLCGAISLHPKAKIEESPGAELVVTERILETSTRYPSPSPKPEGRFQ

mouse PD-1 [3] = target: T2, mouse PD-1; test: Kd column of Table 22; same value as PD-L2(mut2)-Fc in Table 21
[4] = target: human PD-1 overexpressed on HEK-Blue reporter cells (human, UniProt Q15116 25-288); test: cell-based or functional assay
Sequence of human PD-1 overexpressed on HEK-Blue reporter cells (Q15116 25-288): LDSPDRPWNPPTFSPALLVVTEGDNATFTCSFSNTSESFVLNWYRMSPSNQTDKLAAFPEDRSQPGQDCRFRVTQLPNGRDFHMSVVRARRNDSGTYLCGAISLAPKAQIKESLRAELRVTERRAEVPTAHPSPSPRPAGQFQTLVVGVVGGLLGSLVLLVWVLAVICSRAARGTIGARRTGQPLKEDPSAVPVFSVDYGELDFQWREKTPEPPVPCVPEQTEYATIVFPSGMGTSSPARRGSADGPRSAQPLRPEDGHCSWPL

[5] = target: human IL-12 receptor complex (human, UniProt P42701 24-662; Q99665 24-862); test: cell-based or functional assay
Sequence of human IL-12 receptor complex (Q99665 24-862, chain 2 of 2, other chains not shown): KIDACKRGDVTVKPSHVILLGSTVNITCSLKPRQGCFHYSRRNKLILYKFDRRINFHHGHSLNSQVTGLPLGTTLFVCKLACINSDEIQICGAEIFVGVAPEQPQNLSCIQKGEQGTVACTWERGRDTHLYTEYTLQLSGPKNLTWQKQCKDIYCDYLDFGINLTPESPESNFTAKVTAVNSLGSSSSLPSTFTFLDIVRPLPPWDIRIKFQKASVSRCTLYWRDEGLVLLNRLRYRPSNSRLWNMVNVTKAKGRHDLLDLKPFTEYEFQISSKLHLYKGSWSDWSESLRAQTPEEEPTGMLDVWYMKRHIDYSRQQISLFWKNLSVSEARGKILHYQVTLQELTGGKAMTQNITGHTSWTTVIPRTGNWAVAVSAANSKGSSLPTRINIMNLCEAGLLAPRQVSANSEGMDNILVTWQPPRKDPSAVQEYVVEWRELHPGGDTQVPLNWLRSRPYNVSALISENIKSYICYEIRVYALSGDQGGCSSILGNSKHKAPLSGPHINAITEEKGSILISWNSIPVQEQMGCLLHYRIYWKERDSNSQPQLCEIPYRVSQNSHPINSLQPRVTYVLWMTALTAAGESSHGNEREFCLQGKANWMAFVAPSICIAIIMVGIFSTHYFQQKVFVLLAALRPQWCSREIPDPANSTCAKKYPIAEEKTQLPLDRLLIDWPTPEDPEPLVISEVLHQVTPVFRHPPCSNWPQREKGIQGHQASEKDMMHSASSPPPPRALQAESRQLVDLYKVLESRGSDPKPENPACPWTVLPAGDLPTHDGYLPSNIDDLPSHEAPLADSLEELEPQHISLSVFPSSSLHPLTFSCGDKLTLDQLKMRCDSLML

mouse PD-1 [6] = target: T2, mouse PD-1; test: Kd column of Table 22; same value as PD-L1(mut2)-Fc in Table 20
human PD-1 [7] = target: T1, human PD-1; test: affinity in PD-L1-Fc format; N/A indicates non-detectable PD-1 binding
mouse PD-1 [8] = target: T2, mouse PD-1; test: as above
mouse PD-1 [9] = target: T2, mouse PD-1; test: Kd column of Table 22; same value as PD-L2(WT)-Fc in Table 21

T1 sequence (Q15116 25-167 limits assumed): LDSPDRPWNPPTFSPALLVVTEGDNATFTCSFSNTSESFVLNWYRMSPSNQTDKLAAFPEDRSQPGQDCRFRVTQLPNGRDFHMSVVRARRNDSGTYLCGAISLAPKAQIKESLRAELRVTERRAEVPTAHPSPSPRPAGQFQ

Kd (human PD-1 [1]): ~100 nM
Kd (mouse PD-1 [2]): ~100 nM
Kd (mouse PD-1 [3]): 230 nM
B1: IL-12(E59A/F60A)/PD-L2(mut2)-Fc (Fc fusion)
chain 1: LFTVTVPKELYIIEHGSNVTLECNFDTGSHVNLGAITAVLQKVENDTSPHRERATLLEEQLPLGKASFHIPQVQVRDEGQYQCIIIYGVAWDYKYLTLKVKASYRKINTHILKVPETDEVELTCQATGYPLAEVSWPNVSVPANTSHSRTPEGLYQVTSVLRLKPPPGRNFSCVFWNTHVRELTLASIDLQSQMEPRTHPTGGGGSGGGIWELKKDVYVVELDWYPDAPGEMVVLTCDTPEEDGITWTLDQSSEVLGSGKTLTIQVKAAGDAGQYTCHKGGEVLSHSLLLLHKKEDGIWSTDILKDQKEPKNKTFLRCEAKNYSGRFTCWWLTTISTDLTFSVKSSRGSSDPQGVTCGAATLSAERVRGDNKEYEYSVECQEDSACPAAEESLPIEVMVDAVHKLKYENYTSSFFIRDIIKPDPPKNLQLKPLKNSRQVEVSWEYPDTWSTPHSYFSLTFCVQVQGKSKREKKDRVFTDKTSATVICRKNASISVRAQDRYYSSSWSEWASVPCSGGGGSGGGSGGGGSRNLPVATPDPGMFPCLHHSQNLLRAVSNMLQKARQTLEFYPCTSEEIDHEDITKDKTSTVEACLPLELTKNESCLNSRETSFITNGSCLASRKTSFMMALCLSSIYEDLKMYQVEFKTMNAKLLMDPKRQIFLDQNMLAVIDELMQALNFNSETVPQKSSLEEPDFYKTKIKLCILLHAFRIRAVTIDRVMSYLNASGGGGSGGGDKTHTCPPCPAPEDEGGPSVFLFPPKPKDTLMISRTPEVTCVVVDVSHEDPEVKFNWYVDGVEVHNAKTKPREEQYNSTYRVVSVLTVLHQDWLNGKEYKCKVSNKALPAPIEKTISKAKGQPREPQVYVYPPSREEMTKNQVSLTCLVKGFYPSDIAVEWESNGQPENNYKTTPPVLDEDGSFALVSKLTVDKSRWQQGNVFSCSVMHEALHNHYTQKSLSLSPGK
chain 2: LFTVTVPKELYIIEHGSNVTLECNFDTGSHVNLGAITAVLQKVENDTSPHRERATLLEEQLPLGKASFHIPQVQVRDEGQYQCIIIYGVAWDYKYLTLKVKASYRKINTHILKVPETDEVELTCQATGYPLAEVSWPNVSVPANTSHSRTPEGLYQVTSVLRLKPPPGRNFSCVFWNTHVRELTLASIDLQSQMEPRTHPTGGGGSGGGDKTHTCPPCPAPEKKGGPSVFLFPPKPKDTLMISRTPEVTCVVVDVSHEDPEVKFNWYVDGVEVHNAKTKPREEQYNSTYRVVSVLTVLHQDWLNGKEYKCKVSNKALPAPIEKTISKAKGQPREPQVYVLPPSREEMTKNQVSLLCLVKGFYPSDIAVEWESNGQPENRYMTWPPVLDSDGSFFLYSKLTVDKSRWQQGNVFSCSVMHEALHNHYTQKSLSLSPGK
notes: also called IL-12(E59A/F60A)/PD-L2(S58V)-Fc

IL-12 signal transduction, % of rIL-12, HEK-IL-12-PD-1 cells [4]: 24%
IL-12 signal transduction, % of rIL-12, HEK-IL-12 cells [5]: < 0.2%
Kd (human PD-1 [1]): ~100 nM
Kd (mouse PD-1 [2]): ~100 nM
Kd (mouse PD-1 [6]): 120 nM
B2: IL-12(E59A/F60A)/PD-L1(mut2)-Fc (Fc fusion)
chain 1: FTVTVPKDLYVVEYGSNMTIECKFPVEKQLDLAALQVYWMMEDKNIIQFVHGEEDLKVQHSSYRQRARLLKDQLSLGNAALQITDVKLQDAGVYTCLIAYKGADYKRITVKVNAPYNKINQRILVVDPVTSEHELTCQAEGYPKAEVIWTSSDHQVLSGKTTTTNSKREEKLFNVTSTLRINTTTNEIFYCTFRRLDPEENHTAELVIPELPLAHPPNERGGGGSGGGIWELKKDVYVVELDWYPDAPGEMVVLTCDTPEEDGITWTLDQSSEVLGSGKTLTIQVKAAGDAGQYTCHKGGEVLSHSLLLLHKKEDGIWSTDILKDQKEPKNKTFLRCEAKNYSGRFTCWWLTTISTDLTFSVKSSRGSSDPQGVTCGAATLSAERVRGDNKEYEYSVECQEDSACPAAEESLPIEVMVDAVHKLKYENYTSSFFIRDIIKPDPPKNLQLKPLKNSRQVEVSWEYPDTWSTPHSYFSLTFCVQVQGKSKREKKDRVFTDKTSATVICRKNASISVRAQDRYYSSSWSEWASVPCSGGGGSGGGSGGGGSRNLPVATPDPGMFPCLHHSQNLLRAVSNMLQKARQTLEFYPCTSEEIDHEDITKDKTSTVEACLPLELTKNESCLNSRETSFITNGSCLASRKTSFMMALCLSSIYEDLKMYQVEFKTMNAKLLMDPKRQIFLDQNMLAVIDELMQALNFNSETVPQKSSLEEPDFYKTKIKLCILLHAFRIRAVTIDRVMSYLNASGGGGSGGGDKTHTCPPCPAPEDEGGPSVFLFPPKPKDTLMISRTPEVTCVVVDVSHEDPEVKFNWYVDGVEVHNAKTKPREEQYNSTYRVVSVLTVLHQDWLNGKEYKCKVSNKALPAPIEKTISKAKGQPREPQVYVYPPSREEMTKNQVSLTCLVKGFYPSDIAVEWESNGQPENNYKTTPPVLDEDGSFALVSKLTVDKSRWQQGNVFSCSVMHEALHNHYTQKSLSLSPGK
chain 2: FTVTVPKDLYVVEYGSNMTIECKFPVEKQLDLAALQVYWMMEDKNIIQFVHGEEDLKVQHSSYRQRARLLKDQLSLGNAALQITDVKLQDAGVYTCLIAYKGADYKRITVKVNAPYNKINQRILVVDPVTSEHELTCQAEGYPKAEVIWTSSDHQVLSGKTTTTNSKREEKLFNVTSTLRINTTTNEIFYCTFRRLDPEENHTAELVIPELPLAHPPNERGGGGSGGGDKTHTCPPCPAPEKKGGPSVFLFPPKPKDTLMISRTPEVTCVVVDVSHEDPEVKFNWYVDGVEVHNAKTKPREEQYNSTYRVVSVLTVLHQDWLNGKEYKCKVSNKALPAPIEKTISKAKGQPREPQVYVLPPSREEMTKNQVSLLCLVKGFYPSDIAVEWESNGQPENRYMTWPPVLDSDGSFFLYSKLTVDKSRWQQGNVFSCSVMHEALHNHYTQKSLSLSPGK
notes: also called IL-12(E59A/F60A)/PD-L1(I54Q/E58M/R113T/M115L/S117A/G119K)-Fc

binding result (human PD-1 [7]): no binding
binding result (mouse PD-1 [8]): no binding
B3: PD-L1(mut1)-Fc (Fc fusion)
chain 1: FTVTVPKDLYVVEYGSNMTIECKFPVEKQLDLAALIVYWMMEDKNIIQFVHGEEDLKVQHSSYRQRARLLKDQLSLGNAALQITDVKLQDAGVYTCLIAYKGADYKRITVKVNAPYNKINQRILVVDPVTSEHELTCQAEGYPKAEVIWTSSDHQVLSGKTTTTNSKREEKLFNVTSTLRINTTTNEIFYCTFRRLDPEENHTAELVIPELPLAHPPNERDKTHTCPPCPAPEDEGGPSVFLFPPKPKDTLMISRTPEVTCVVVDVSHEDPEVKFNWYVDGVEVHNAKTKPREEQYNSTYRVVSVLTVLHQDWLNGKEYKCKVSNKALPAPIEKTISKAKGQPREPQVYVYPPSREEMTKNQVSLTCLVKGFYPSDIAVEWESNGQPENNYKTTPPVLDEDGSFALVSKLTVDKSRWQQGNVFSCSVMHEALHNHYTQKSLSLSPGK
chain 2: B3 chain 1 with D234K, E235K, Y351L, T366L, N390R, K392M, T394W, E400S, A405F, V407Y
notes: also called E58M/R113T/M115L/S117A/G119K

Kd (mouse PD-1 [9]): 980 nM
B4: IL-12(E59A/F60A)/PD-L2(WT)-Fc (Fc fusion)
chain 1: LFTVTVPKELYIIEHGSNVTLECNFDTGSHVNLGAITASLQKVENDTSPHRERATLLEEQLPLGKASFHIPQVQVRDEGQYQCIIIYGVAWDYKYLTLKVKASYRKINTHILKVPETDEVELTCQATGYPLAEVSWPNVSVPANTSHSRTPEGLYQVTSVLRLKPPPGRNFSCVFWNTHVRELTLASIDLQSQMEPRTHPTGSGIWELKKDVYVVELDWYPDAPGEMVVLTCDTPEEDGITWTLDQSSEVLGSGKTLTIQVKAAGDAGQYTCHKGGEVLSHSLLLLHKKEDGIWSTDILKDQKEPKNKTFLRCEAKNYSGRFTCWWLTTISTDLTFSVKSSRGSSDPQGVTCGAATLSAERVRGDNKEYEYSVECQEDSACPAAEESLPIEVMVDAVHKLKYENYTSSFFIRDIIKPDPPKNLQLKPLKNSRQVEVSWEYPDTWSTPHSYFSLTFCVQVQGKSKREKKDRVFTDKTSATVICRKNASISVRAQDRYYSSSWSEWASVPCSGGGGSGGGGSGGGGSGGGGSGRNLPVATPDPGMFPCLHHSQNLLRAVSNMLQKARQTLEFYPCTSEEIDHEDITKDKTSTVEACLPLELTKNESCLNSRETSFITNGSCLASRKTSFMMALCLSSIYEDLKMYQVEFKTMNAKLLMDPKRQIFLDQNMLAVIDELMQALNFNSETVPQKSSLEEPDFYKTKIKLCILLHAFRIRAVTIDRVMSYLNASDKTHTCPPCPAPEDEGGPSVFLFPPKPKDTLMISRTPEVTCVVVDVSHEDPEVKFNWYVDGVEVHNAKTKPREEQYNSTYRVVSVLTVLHQDWLNGKEYKCKVSNKALPAPIEKTISKAKGQPREPQVYVYPPSREEMTKNQVSLTCLVKGFYPSDIAVEWESNGQPENNYKTTPPVLDEDGSFALVSKLTVDKSRWQQGNVFSCSVMHEALHNHYTQKSLSLSPGK
chain 2: LFTVTVPKELYIIEHGSNVTLECNFDTGSHVNLGAITASLQKVENDTSPHRERATLLEEQLPLGKASFHIPQVQVRDEGQYQCIIIYGVAWDYKYLTLKVKASYRKINTHILKVPETDEVELTCQATGYPLAEVSWPNVSVPANTSHSRTPEGLYQVTSVLRLKPPPGRNFSCVFWNTHVRELTLASIDLQSQMEPRTHPTGSGDKTHTCPPCPAPEKKGGPSVFLFPPKPKDTLMISRTPEVTCVVVDVSHEDPEVKFNWYVDGVEVHNAKTKPREEQYNSTYRVVSVLTVLHQDWLNGKEYKCKVSNKALPAPIEKTISKAKGQPREPQVYVLPPSREEMTKNQVSLLCLVKGFYPSDIAVEWESNGQPENRYMTWPPVLDSDGSFFLYSKLTVDKSRWQQGNVFSCSVMHEALHNHYTQKSLSLSPGK
notes: also called IL-12(E59A/F60A)/PD-L2-Fc immunocytokine; construct #29
